# Reference: the supplement of paper PMC6757056
# ± gives the standard deviation of the averaged measurements.
# B1: library; a variant is named by its letters at N, in order (parent)
# chain: GCUGUCACCGAGAAACUGUGAAGUAUAUCUUAAACCUGGGCACUUAAAAGAUAUAUGGAGUUAGUAGUGCAACCUGCUCGGUCUGAUGAGUCCNNNNNNGGACGAAACAGC
# Columns and labels:
# cyclic di-GMP [1] = variants of: B1; assay: FACS-Seq fitted mean relative fluorescence mCherry/BFP without ligand (log10 relative fluorescence); HEK293T; ligand: cyclic di-GMP (c-di-GMP-II aptamer); higher = higher reporter protein expression; conditions: ligand present: no
# Summary of the method: (§1)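 Fluorescence figures are normalized fitted normal means of sequenced bin counts. Enriched, lentivirally transduced HEK293T libraries with a ribozyme-switch mCherry reporter and EF1α-BFP were held 48 h with or without ligand, then sorted into 6 mCherry/BFP bins. PCR-amplified, barcoded genomic DNA from each bin was sequenced on MiSeq. Means of log10(mCherry/BFP) were scaled to five spiked-in control ribozymes.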
# cyclic di-GMP [2] = variants of: B1; assay: normalized RNA/DNA level without ligand (relative to sTRSVctl = 100) (log10 (% of sTRSVctl)); HEK293T; ligand: cyclic di-GMP (c-di-GMP-II aptamer); higher = less ribozyme self-cleavage, higher mRNA level; conditions: reporter: mCherry (pCS4076), ligand present: no
# Summary of the method: (§2)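 RNA level was computed as RNA reads over DNA reads divided by a spiked-in non-cleaving sequence or by the top sequences, then scaled and log-transformed. Scaling was ×100 with log10, the top group was 25 sequences, and the threshold was ≥100 DNA reads. The reads came from HEK293T cells transfected at 4 µg per 6-well well with ribozyme switch library plasmids (mCherry, or eGFP in some ligand experiments). Total RNA was extracted with EDTA 72 h after transfection, with any ligand added 1 h before it.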
# cyclic di-GMP [3] = variants of: B1; assay: FACS-Seq fitted mean relative fluorescence mCherry/BFP with ligand (log10 relative fluorescence); HEK293T; ligand: cyclic di-GMP (c-di-GMP-II aptamer); ligand concentration (+) FACS-Seq: 1 mM; higher = higher reporter protein expression; conditions: ligand present: yes
# Summary of the method: as §1
# cyclic di-GMP [4] = variants of: B1; assay: normalized RNA/DNA level with ligand (relative to sTRSVctl = 100) (log10 (% of sTRSVctl)); HEK293T; ligand: cyclic di-GMP (c-di-GMP-II aptamer); ligand concentration (+) RNA-Seq: 1 mM; higher = less ribozyme self-cleavage, higher mRNA level; conditions: reporter: mCherry (pCS4076), ligand present: yes
# Summary of the method: as §2
Variant,FACS-Seq fitted mean (log10) (cyclic di-GMP [1]),normalized RNA/DNA level without ligand (log10) (cyclic di-GMP [2]),FACS-Seq fitted mean (log10) (cyclic di-GMP [3]),normalized RNA/DNA level with ligand (log10) (cyclic di-GMP [4])
CUCUUA,-0.241 ± 0.082,1.46 ± 0.067,-0.0535 ± 0.053,1.65 ± 0.11
CUCUUG,0.116 ± 0.092,1.73 ± 0.029,0.381 ± 0.043,1.86 ± 0.096
AUGCGA,-0.411 ± 0.064,1.49 ± 0.079,-0.0888 ± 0.022,1.66 ± 0.13
AUUCAG,-0.308 ± 0.062,1.59 ± 0.026,-0.0248 ± 0.0054,1.74 ± 0.1
AUGGAU,-0.631 ± 0.017,1.51 ± 0.057,-0.404 ± 0.012,1.67 ± 0.12
AUGGAA,-0.588 ± 0.0092,1.33 ± 0.13,-0.293 ± 0.033,1.53 ± 0.14
UUUAGU,0.00244 ± 0.12,1.732 ± 0.013,0.273 ± 0.034,1.87 ± 0.088
CUCUCU,-0.0993 ± 0.11,1.63 ± 0.06,0.163 ± 0.0032,1.79 ± 0.13
GUUCUG,-0.079 ± 0.018,1.67 ± 0.021,0.284 ± 0.091,1.84 ± 0.15
GUUCUA,-0.743 ± 0.033,1.635 ± 0.0068,-0.5214 ± 0.0042,1.75 ± 0.095
GUCUGU,-0.165 ± 0.035,1.66 ± 0.044,0.0419 ± 0.17,1.81 ± 0.069
GUUAUG,-0.452 ± 0.02,1.57 ± 0.081,-0.0804 ± 0.023,1.78 ± 0.09
GUUAUA,-0.123 ± 0.14,1.59 ± 0.042,0.169 ± 0.14,1.75 ± 0.071
GUUCCA,-0.877 ± 0.03,1.65 ± 0.022,-0.674 ± 0.016,1.81 ± 0.12
CUGGAA,-0.647 ± 0.051,1.26 ± 0.1,-0.397 ± 0.011,1.41 ± 0.06
AUCUGG,-0.899 ± 0.093,1.67 ± 0.058,-0.683 ± 0.046,1.81 ± 0.12
AUCUGC,-0.0609 ± 0.046,1.731 ± 0.0043,0.176 ± 0.085,1.88 ± 0.14
GUUUUG,0.124 ± 0.17,1.61 ± 0.095,0.384 ± 0.05,1.8 ± 0.083
GUUUUU,-0.978 ± 0.05,1.715 ± 0.0068,-0.711 ± 0.12,1.87 ± 0.12
CUUUAA,-0.402 ± 0.005,1.32 ± 0.094,-0.039 ± 0.028,1.54 ± 0.087
GUGGAA,-0.382 ± 0.021,1.4 ± 0.087,-0.0891 ± 0.076,1.63 ± 0.092
GUGGAC,-0.519 ± 0.08,1.55 ± 0.092,-0.171 ± 0.053,1.75 ± 0.095
GUGGAU,-0.528 ± 0.045,1.52 ± 0.093,-0.192 ± 0.024,1.72 ± 0.072
AUUGCC,-0.0783 ± 0.14,1.776 ± 0.0015,0.207 ± 0.0046,1.92 ± 0.12

Variant,FACS-Seq fitted mean (log10) (cyclic di-GMP [1]),normalized RNA/DNA level without ligand (log10) (cyclic di-GMP [2]),FACS-Seq fitted mean (log10) (cyclic di-GMP [3]),normalized RNA/DNA level with ligand (log10) (cyclic di-GMP [4])
GUGCCG,-0.423 ± 0.023,1.828 ± 0.017,-0.15 ± 0.011,1.92 ± 0.11
CUUACA,-0.457 ± 0.02,1.55 ± 0.067,-0.154 ± 0.088,1.72 ± 0.077
AUGAUU,-0.57 ± 0.11,1.41 ± 0.17,-0.0144 ± 0.094,1.62 ± 0.11
AUGAUG,-0.239 ± 0.054,1.6 ± 0.069,0.056 ± 0.078,1.77 ± 0.11
CUUUCA,-0.391 ± 0.0064,1.42 ± 0.11,-0.114 ± 0.028,1.66 ± 0.051
CUUUCC,0.0673 ± 0.015,1.82 ± 0.038,0.163 ± 0.01,1.93 ± 0.11
CUUUCU,-0.275 ± 0.072,1.65 ± 0.072,0.0435 ± 0.082,1.77 ± 0.095
AUUAAA,-0.425 ± 0.11,1.53 ± 0.048,-0.0171 ± 0.053,1.71 ± 0.12
CUGAGU,-0.459 ± 0.047,1.7 ± 0.022,-0.264 ± 0.00087,1.83 ± 0.12
UUGACA,-0.91 ± 0.064,1.701 ± 0.0052,-0.508 ± 0.077,1.83 ± 0.14
AUGACU,-1.21 ± 0.091,1.71 ± 0.0041,-0.93 ± 0.06,1.85 ± 0.11
AUUAGC,-0.0321 ± 0.09,1.6567 ± 0.0015,0.226 ± 0.11,1.76 ± 0.16
GUUUGA,-0.499 ± 0.039,1.56 ± 0.086,-0.212 ± 0.018,1.71 ± 0.042
GUUUGC,-0.138 ± 0.079,1.66 ± 0.043,0.164 ± 0.012,1.79 ± 0.15
GUUUGG,-0.428 ± 0.018,1.62 ± 0.068,-0.249 ± 0.089,1.8 ± 0.13
CUGCAA,-0.468 ± 0.049,1.36 ± 0.11,-0.0644 ± 0.035,1.59 ± 0.097
CUUCAA,-0.32 ± 0.059,1.43 ± 0.099,0.136 ± 0.056,1.64 ± 0.083
CUUCAU,-0.264 ± 0.079,1.58 ± 0.044,-0.136 ± 0.066,1.75 ± 0.12
AUGGGU,-0.563 ± 0.083,1.54 ± 0.072,-0.3945 ± 0.00061,1.74 ± 0.07
AUUCGC,-0.123 ± 0.015,1.7768 ± 0.00017,0.194 ± 0.063,1.91 ± 0.11
AUUCGG,-0.4 ± 0.23,1.7 ± 0.019,0.0339 ± 0.063,1.82 ± 0.2
GAAACC,,1.722 ± 0.0059,,1.85 ± 0.1
GAAACG,,1.61 ± 0.053,,1.77 ± 0.069
UUGGAA,-0.145 ± 0.025,1.61 ± 0.12,0.122 ± 0.11,1.78 ± 0.081

Variant,FACS-Seq fitted mean (log10) (cyclic di-GMP [1]),normalized RNA/DNA level without ligand (log10) (cyclic di-GMP [2]),FACS-Seq fitted mean (log10) (cyclic di-GMP [3]),normalized RNA/DNA level with ligand (log10) (cyclic di-GMP [4])
CUUAUA,-0.487 ± 0.096,1.44 ± 0.09,-0.184 ± 0.028,1.65 ± 0.088
CUGAUG,-0.749 ± 0.029,1.39 ± 0.12,-0.5264 ± 0.0006,1.58 ± 0.081
CUGAUU,-0.154 ± 0.084,1.505 ± 0.015,0.107 ± 0.18,1.71 ± 0.12
CUGAUA,-0.362 ± 0.04,1.27 ± 0.11,-0.182 ± 0.1,1.5 ± 0.1
AUGAGA,-0.299 ± 0.14,1.35 ± 0.12,-0.147 ± 0.0049,1.54 ± 0.15
AUGAGU,-0.416 ± 0.026,1.54 ± 0.019,-0.0836 ± 0.048,1.73 ± 0.14
GUUGCG,-0.248 ± 0.029,1.81 ± 0.023,0.0336 ± 0.026,1.88 ± 0.092
CUUGAC,-0.287 ± 0.2,1.69 ± 0.024,0.101 ± 0.066,1.83 ± 0.085
CUUGAA,-0.585 ± 0.066,1.35 ± 0.11,-0.291 ± 0.046,1.55 ± 0.086
AUUAUC,-0.473 ± 0.04,1.72 ± 0.062,-0.167 ± 0.081,1.84 ± 0.13
GUUACU,-0.232 ± 0.064,1.75 ± 0.027,0.0991 ± 0.015,1.82 ± 0.13
AUGGUG,-0.341 ± 0.087,1.56 ± 0.1,-0.113 ± 0.021,1.7 ± 0.094
AUGGUA,-0.519 ± 0.1,1.46 ± 0.066,-0.143 ± 0.024,1.65 ± 0.098
GUUGAC,-0.0708 ± 0.036,1.658 ± 0.008,0.228 ± 0.1,1.79 ± 0.099
GUUGAG,-0.16 ± 0.072,1.55 ± 0.081,0.0985 ± 0.045,1.72 ± 0.11
AUGUUA,-0.342 ± 0.13,1.523 ± 0.0094,-0.0703 ± 0.042,1.73 ± 0.1
UUGUUC,-0.6418 ± 0.0047,1.75 ± 0.018,-0.462 ± 0.0095,1.89 ± 0.1
AUUGGA,-0.489 ± 0.028,1.45 ± 0.099,-0.102 ± 0.071,1.62 ± 0.1
AUUGGU,-0.24 ± 0.092,1.58 ± 0.052,0.0192 ± 0.053,1.78 ± 0.14
UAAACC,,1.77 ± 0.027,,1.85 ± 0.076
GUGGCC,0.168 ± 0.017,1.86 ± 0.033,0.366 ± 0.0082,1.97 ± 0.047
UUUCUA,-0.278 ± 0.011,1.75 ± 0.065,-0.016 ± 0.035,1.88 ± 0.11
UUUCUU,0.255 ± 0.19,1.773 ± 0.014,0.428 ± 0.021,1.89 ± 0.066
AUUACG,-0.439 ± 0.014,1.67 ± 0.032,-0.0914 ± 0.065,1.83 ± 0.072
